Data taken from patent publication US20150017154A1 (NEXVET AUSTRALIA, published 2015).

Tests used:
mouse NGF = biological target: T1, mouse NGF (mouse, UniProt P01139 122-241, limits assumed); assay: ELISA, CHO supernatant on coated NGF, anti-canine IgG-HRP
T1 construct: Coated on ELISA plates; also called murine NGF
Protocol: Combinations of caninised heavy and light chain cDNAs were transfected into CHO cells, the supernatants harvested and reacted in ELISA format with either canine or murine NGF. Following incubation and wash steps, the bound canine antibody was detected by reactivity with a goat-anti canine IgG specific polyclonal antibody linked to horseradish peroxidase (HRP) and developed using TMB. The optical density of the resulting product was measured at 450 nm and compared with that from mock empty vector transfected supernatant (denoted as “Mock” in FIG. 1).

[1] = biological target: T2, complement C1q (from human serum) (human, UniProt P02745 23-245; P02746 28-253; P02747 29-245); assay: C1q ELISA: antibody captured on mouse NGF-coated plate, human serum, anti-C1q-HRP
T2 construct: Native C1q in human serum diluted 1/100
T2 sequence (P02745 23-245 limits assumed, chain 1 of 3): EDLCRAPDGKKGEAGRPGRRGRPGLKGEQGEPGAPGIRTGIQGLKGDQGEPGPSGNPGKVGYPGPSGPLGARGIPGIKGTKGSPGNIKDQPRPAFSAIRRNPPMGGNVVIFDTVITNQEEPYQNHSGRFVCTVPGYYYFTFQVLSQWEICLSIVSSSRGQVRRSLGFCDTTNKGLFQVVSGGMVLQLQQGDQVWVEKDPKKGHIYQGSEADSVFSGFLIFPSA
T2 sequence (P02746 28-253 limits assumed, chain 2 of 3): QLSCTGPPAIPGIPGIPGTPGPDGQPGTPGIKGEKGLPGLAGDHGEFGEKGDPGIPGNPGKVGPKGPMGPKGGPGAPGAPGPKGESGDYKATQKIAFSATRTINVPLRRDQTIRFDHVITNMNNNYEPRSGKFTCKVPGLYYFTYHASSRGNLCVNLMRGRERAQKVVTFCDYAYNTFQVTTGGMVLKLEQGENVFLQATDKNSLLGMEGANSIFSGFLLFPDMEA
T2 sequence (P02747 29-245 limits assumed, chain 3 of 3): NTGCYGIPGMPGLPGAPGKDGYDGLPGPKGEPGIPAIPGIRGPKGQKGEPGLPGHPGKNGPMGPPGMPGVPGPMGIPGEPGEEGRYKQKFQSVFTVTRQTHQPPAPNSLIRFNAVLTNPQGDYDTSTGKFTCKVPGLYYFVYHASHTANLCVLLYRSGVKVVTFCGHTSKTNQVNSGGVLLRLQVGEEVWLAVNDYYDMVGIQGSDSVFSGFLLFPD
Protocol: CHO cell transfectant supernatants from Example 2 were incubated with plates coated with […] NGF to capture the antibodies. The plates were washed and then incubated with human serum and bound complement C1q was measured by binding of anti-human C1q polyclonal antibody HRP and developed as above.
Plates were coated with 100 μl/well of 5 μg/ml mouse NGF and blocked with 5% BSA/PBS. Coated wells were incubated for 1 hour at room temperature with cell culture supernatants, containing recombinant caninised anti-NGF IgG, diluted in PBS/1% BSA (100 μl/well). The plates were washed and incubated for 1 hour at room temperature with 100 μl/well of human serum diluted 1/100 in veronal buffered saline containing 0.5 mM MgCl₂, 2 mM CaCl₂, 0.05% Tween-20, 0.1% gelatin and 0.5% BSA. After washing, plates were incubated with 100 μl of a 1/800 dilution of sheep anti-C1q-HRP (Serotec) in PBS/1% BSA. After washing, plates were developed by the addition of 100 μl TMB substrate (Thermo Scientific). Development was stopped by the addition of 100 μl of 2N H₂SO₄ and absorbance read at 450 nm.

T1 sequence (P01139 122-241 limits assumed): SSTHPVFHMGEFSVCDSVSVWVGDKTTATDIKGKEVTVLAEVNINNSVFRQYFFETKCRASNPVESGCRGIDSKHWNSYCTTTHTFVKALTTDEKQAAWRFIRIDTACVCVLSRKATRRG

B1: caninised anti-NGF antibody comprising the caN-HCA heavy chain and caN-kLC light chain (antibody)
heavy: EVQLVESGGDLVNPGGTLTLSCVVSGFSLTNNNVNWVRQALGRGLEWVGGVWAGGATDYNSALKSRLTITRDTSKSTVFLKMHSLQSEDTATYYCARDGGYSSSTLYAMDAWGQGTLVTVSSASTTAPSVFPLAPSCGSTSGSTVALACLVSGYFPEPVTVSWNSGSLTSGVHTFPSVLQSSGLHSLSSMVTVPSSRWPSETFTCNVVHPASNTKVDKPVFNECRCTDTPPCPVPEPLGGPSVLIFPPKPKDILRITRTPEVTCVVLDLGREDPEVQISWFVDGKEVHTAKTQSREQQFNGTYRVVSVLPIEHQDWLTGKEFKCRVNHIDLPSPIERTISKARGRAHKPSVYVLPPSPKELSSSDTVSITCLIKDFYPPDIDVEWQSNGQQEPERKHRMTPPQLDEDGSYFLYSKLSVDKSRWQQGDPFTCAVMHETLQNHYTDLSLSHSPGK
light: DIQMTQSPASLSLSQEEKVTITCRASEDIYNALAWYQQKPGQAPKLLIYNTDTLHTGVPSRFSGSGSGTEYSLTINSLESEDVAVYFCQHYFHYPRTFGAGTKVELKRNDAQPAVYLFQPSPDQLHTGSASVVCLLNSFYPKDINVKWKVDGVIQDTGIQESVTEQDKDSTYSLSSTLTMSSTEYLSHELYSCEITHKSLPSTLIKSFQRSECQRVD
notes: Tested as CHO cell transfectant supernatant; also called A-HCA; caN-HCA+caN-kLC1
- binding result (mouse NGF): binds
- binding result [1]: no binding
